Source: paper PMC11759358

Target: Flag::Hth (Homothorax, Flag-tagged) (Drosophila) (UniProt O46339)
Test: co-IP; SF9 extracts with Flag::Hth, His::Exd and HA::Abd-B (wild type or W>A) mixed and incubated on anti-Flag resin; lysis solution 140 mM KCl, 5% glycerol, 2.5% MgCl2, 25 mM Hepes pH 7.8, 10 mM imidazole; Western blot by the tags

UniProt O46339, sequence (O46339 whole entry): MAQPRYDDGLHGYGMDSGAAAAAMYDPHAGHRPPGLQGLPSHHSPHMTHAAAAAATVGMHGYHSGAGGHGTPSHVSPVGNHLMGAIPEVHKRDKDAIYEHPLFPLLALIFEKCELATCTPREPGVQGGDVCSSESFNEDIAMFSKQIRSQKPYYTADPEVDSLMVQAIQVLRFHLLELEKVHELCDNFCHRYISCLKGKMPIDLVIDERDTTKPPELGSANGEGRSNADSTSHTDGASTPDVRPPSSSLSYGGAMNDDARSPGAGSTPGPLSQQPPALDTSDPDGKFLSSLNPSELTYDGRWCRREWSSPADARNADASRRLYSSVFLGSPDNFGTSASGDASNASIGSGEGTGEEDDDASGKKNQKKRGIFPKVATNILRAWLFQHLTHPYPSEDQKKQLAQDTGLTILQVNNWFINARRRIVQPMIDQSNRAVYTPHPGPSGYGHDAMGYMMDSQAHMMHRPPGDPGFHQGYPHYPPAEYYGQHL

With “HA::Abd-B^W (Abdominal-B with the Tryptophan of the HX-like motif mutated to Alanine, HA-tagged) (from UniProt P09087 1-493)” the percent reduction of co-precipitated protein against wild-type Abd-B was 24%.
